Tests used:
Format in all cases: in vivo
LDL-RD mice [1] = assay: Aortic sinus lesion area after oral administration, Western diet; settings: for Aortic sinus lesion (μm^2): End, mean ± S.E
Procedure: Oral Tolerance: For comparison, oral tolerance to plaque-associated molecules was induced by feeding […] of antigen every other day (for a detailed account of induction of oral tolerance, see U.S. patent application Ser. No. 09/806,400 to Shoenfeld et al filed Sep. 30, 1999), in a similar regimen to the nasal tolerance. LDL-RD mice were fed by a nasogastric tube, five doses (every other day) of human or bovine β2GPI in PBS in two different concentrations (500 and 50 μg/dose).
Oral tolerance to β2GPI-derived peptides, alone or in combination was induced by feeding 100 μg of the peptides (prepared in PBS, 0.2 ml), as detailed hereinabove, every other day for a total of 5 doses of 100 μg. One day following the last feeding, all mice were switched from chow-diet to an atherogenic “Western” diet and sacrificed five weeks later.
(§1) Assessment of Atherosclerosis: Quantification of atherosclerotic fatty streak lesions was done by calculating the lesion size in the aortic sinus as previously described (16) and by calculating the lesion size in the aorta. Briefly, after perfusion with saline Tris EDTA, the heart and the aorta were removed from the animals and the peripheral fat cleaned carefully. The upper section of the heart was embedded in OCT medium (10.24% w/w polyvinyl alcohol; 4.26% w/w polyethylene glycol; 85.50% w/w nonreactive ingredients) and frozen. Every other section (10 μm thick) throughout the aortic sinus (400 μm) was taken for analysis. The distal portion of the aortic sinus was recognized by the three valve cusps that are the junctions of the aorta to the heart. […] Lesion areas per section were scored on a grid (17) by an observer counting unidentified, numbered specimens. The aorta was dissected from the heart and surrounding adventitious tissue was removed. Fixation of the aorta and Sudan staining of the vessels were performed as previously described (21).
LDL-receptor deficient (LDL-RD; LDLR −/−) mice created on a C57BL/6 background develop accelerated atherosclerosis when fed a high cholesterol diet, but not when fed a regular chow diet. In order to determine whether mucosal administration of the plaque antigen β2GPI could suppress atherogenic processes, LDL-RD mice were fed low, oral tolerance inducing doses of human and bovine β2GPI, and the assessed for alterations in response to diet.

LDL-RD mice [2] = assay: Aortic sinus lesion area after nasal tolerance induction, Western diet; settings: End, mean ± S.E
Procedure: Nasal Tolerance: Nasal tolerance was induced by intranasal administration of oxidized LDL, β2GPI, β2GPI-derived peptides or HSP65, in a total volume of 10 μl PBS. Intranasal administration was performed on mildly sedated mice (12-16 weeks old), each mouse receiving 3 doses of antigen per dose, in the indicated concentrations, every other day. Atherogenesis was induced by 5 weeks of a Western diet initiated on the day following the last intranasal administration, or assessed (in Apo E KO mice) after 8 weeks on a chow diet. Controls received equal amounts of BSA and/or PBS, as indicated, in an identical regimen. Plasma was obtained for assessment of cholesterol and triglyceride levels from all mice, and the mice were sacrificed for evaluation of atherosclerosis, as described hereinbelow, after 5 weeks Western diet, or (in Apo E KO mice) after 8 weeks on a chow diet.
Assessment of Atherosclerosis: Quantification of atherosclerotic fatty streak lesions was done by calculating the lesion size in the aortic sinus as previously described (16) and by calculating the lesion size in the aorta. Briefly, after perfusion with saline Tris EDTA, the heart and the aorta were removed from the animals and the peripheral fat cleaned carefully. The upper section of the heart was embedded in OCT medium (10.24% w/w polyvinyl alcohol; 4.26% w/w polyethylene glycol; 85.50% w/w nonreactive ingredients) and frozen. Every other section (10 μm thick) throughout the aortic sinus (400 μm) was taken for analysis. The distal portion of the aortic sinus was recognized by the three valve cusps that are the junctions of the aorta to the heart. Sections were evaluated for fatty streak lesions after processing and staining with oil-red O, according to Paigen et al (Atherosclerosis, 1987; 68:231-40). Lesion areas per section were scored on a grid (17) by an observer counting unidentified, numbered specimens. The aorta was dissected from the heart and surrounding adventitious tissue was removed. Fixation of the aorta and Sudan staining of the vessels were performed as previously described (21).
Mice were bled prior to feeding (Time 0) and at the conclusion of the experiment (End) for determination of lipid profile. Atherosclerosis was assessed in heart and aorta as described above, 8 weeks after the last feeding. Mice were weighed every 2 weeks during the experiment. All mice were fed water ad libitum and a normal chow-diet containing 4.5% fat by weight (0.02% cholesterol), up to the final antigen exposure, and then a “Western” diet until sacrifice.
Thus, nasal exposure to a low dose and an exceedingly low dose of recombinant human HSP 65 were compared for their effectiveness in suppressing atherogenesis in LDL-RD mice. 58 male 12-16 week old LDL-RD mice were divided into 4 groups.

ApoE-KO mice = assay: Aortic sinus lesion area after oral administration in ApoE-KO mice; settings: End t = 16 wks; oral 50 μg/mouse; ApoE-KO mice; mean ± S.E
From the text: as §1
In order to determine the protective effect of mucosal administration of β2GPI on development of atherosclerosis, adult ApoE-KO mice were treated with oral administration of human β2GPI. 20 week-old male ApoE-KO mice, having advanced atherosclerotic lesions were treated monthly with human β2GPI (50 μg/dose) or PBS (0.2 ml) in 5 oral administrations (by gavage, as described hereinabove) given every other day, for four months. Lesion area calculated from cryosections of the aortic sinus were compared between control untreated 20 week old mice, and mice following 16 weeks oral administration of β2GPI or PBS.
10-11 week-old male ApoE-KO mice, having early atherosclerotic lesions, were treated with 5 oral administrations (by gavage, as described hereinabove) given every other day of human β2GPI peptide S-4 (SEQ ID NO: 14) or human β2GPI (50 μg/dose) or PBS (0.2 ml). Lesion areas calculated from cryosections of the aortic sinus were compared between control untreated, human β2GPI treated and S-4 human β2GPI-derived peptide treated mice at 8 weeks following the last oral administration of the antigens, or of PBS.

B1: B-β2 GPI: bovine beta2-glycoprotein I purified from serum (protein, UniProt P17690 20-345, looked up)
Beta-2-glycoprotein 1: GRTCPKPDELPFSTVVPLKRTYEPGEQIVFSCQPGYVSRGGIRRFTCPLTGLWPINTLKCMPRVCPFAGILENGTVRYTTFEYPNTISFSCHTGFYLKGASSAKCTEEGKWSPDLPVCAPITCPPPPIPKFASLSVYKPLAGNNSFYGSKAVFKCLPHHAMFGNDTVTCTEHGNWTQLPECREVRCPFPSRPDNGFVNHPANPVLYYKDTATFGCHETYSLDGPEEVECSKFGNWSAQPSCKASCKLSIKRATVIYEGERVAIQNKFKNGMLHGQKVSFFCKHKEKKCSYTEDAQCIDGTIEIPKCFKEHSSLAFWKTDASDVKPC
LDL-RD mice [1]; oral 50 μg
  Aortic sinus lesion (μm^2): 27422 ± 3007 μm^2
LDL-RD mice [1]; oral 500 μg
  Aortic sinus lesion (μm^2): 20781 ± 2290 μm^2
LDL-RD mice [1]; oral 50 μg/dose
  reduction of atherosclerosis as compared with BSA-fed controls: 57%
LDL-RD mice [1]; oral 500 μg/dose
  reduction of atherosclerosis as compared with BSA-fed controls: 43%

B2: HSP65: recombinant human HSP 65 according to Example 2 and Table 2 (protein, UniProt P10809 27-573, looked up)
60 kDa heat shock protein, …: AKDVKFGADARALMLQGVDLLADAVAVTMGPKGRTVIIEQSWGSPKVTKDGVTVAKSIDLKDKYKNIGAKLVQDVANNTNEEAGDGTTTATVLARSIAKEGFEKISKGANPVEIRRGVMLAVDAVIAELKKQSKPVTTPEEIAQVATISANGDKEIGNIISDAMKKVGRKGVITVKDGKTLNDELEIIEGMKFDRGYISPYFINTSKGQKCEFQDAYVLLSEKKISSIQSIVPALEIANAHRKPLVIIAEDVDGEALSTLVLNRLKVGLQVVAVKAPGFGDNRKNQLKDMAIATGGAVFGEEGLTLNLEDVQPHDLGKVGEVIVTKDDAMLLKGKGDKAQIEKRIQEIIEQLDVTTSEYEKEKLNERLAKLSDGVAVLKVGGTSDVEVNEKKDRVTDALNATRAAVEEGIVLGGGCALLRCIPALDSLTPANEDQKIGIEIIKRTLKIPAMTIAKNAGVEGSLIVEKIMQSSSEVGYDAMAGDFVNMVEKGIIDPTKVVRTALLDAAGVASLLTTAEVVVTEIPKEEKDPGMGAMGGMGGGMGGGMF
LDL-RD mice [2]; intranasal 1 μg/mouse
  Aortic sinus lesion (μm^2): 17109 ± 2053 μm^2
LDL-RD mice [2]; intranasal 10 μg/mouse
  Aortic sinus lesion (μm^2): 22292 ± 2691 μm^2

B3: B-β2GPI: head of Table 5; text and footnote say human β2GPI, 50 μg/mouse orally (protein, UniProt P02749 20-345, looked up)
Beta-2-glycoprotein 1: GRTCPKPDDLPFSTVVPLKTFYEPGEEITYSCKPGYVSRGGMRKFICPLTGLWPINTLKCTPRVCPFAGILENGAVRYTTFEYPNTISFSCNTGFYLNGADSAKCTEEGKWSPELPVCAPIICPPPSIPTFATLRVYKPSAGNNSLYRDTAVFECLPQHAMFGNDTITCTTHGNWTKLPECREVKCPFPSRPDNGFVNYPAKPTLYYKDKATFGCHDGYSLDGPEEIECTKLGNWSAMPSCKASCKVPVKKATVVYQGERVKIQEKFKNGMLHGDKVSFFCKNKEKKCSYTEDAQCIDGTIEVPKCFKEHSSLAFWKTDASDVKPC
ApoE-KO mice
  Aortic sinus lesion (μm^2): 221042 ± 14472 μm^2
